The text below walks through data of patent US20190203248A1 (Bristol-Myers Squibb, published 2019).

Positions of bridges follow the written chain, without caps; N, C: chain ends. No end group written: not given here.

For orientation: Kd means the constant that tells how readily two partners part at equilibrium. As usually defined, the koff is the rate constant with which the complex falls apart. By kon is commonly meant the rate constant with which the complex forms.

Assay [1] has as its target human β-klotho (human, UniProt Q86Z14 1-1044). In words: cell-based or functional assay.
Assay [2] has as its target β-klotho of differentiated 3T3-L1 adipocytes (mouse) (UniProt Q99N32). In words: cell-based or functional assay.
Assay [3] addresses T1, rhesus serum albumin (rhesus, UniProt Q28522 17-600).
T1 construct: also called RhSA
In words: SPR (Biacore), albumin immobilized on CM5 chip. (In general: In SPR one partner is held on a chip, and binding of the other changes the refractive index at the surface.)
Method: (§3) In addition, binding to albumin was carried out under various pH conditions ranging from pH 5.5 to pH 7.4.

The target in assay [4] is T2, human serum albumin (human, UniProt P02768 25-609).
T2 construct: also called HSA; HuSA
In words: SPR (Biacore), albumin immobilized on CM5 chip.
Method: as §3

For assay [5], the target named is T3, murine serum albumin (mouse, UniProt P07724 25-608).
T3 construct: also called MuSA; mouse serum albumin
As to the kind of experiment: SPR (Biacore), albumin immobilized on CM5 chip.
Method: as §3

Assay [6] has as its target human NPY Y4 receptor (human, UniProt P50391 1-375). In words: cell-based or functional assay.
Assay [7] has as its target T4, cynomolgous monkey serum albumin (cynomolgous monkey, UniProt A2V9Z4 25-608).
T4 construct: also called CySA
In words: SPR (Biacore T100), CySA immobilized, 37 C, 60 µl/min. The method, then:
(§1) Serum albumins were dissolved in PBS buffer (10 mM sodium phosphate, 130 mM sodium chloride, pH 7.1) to a concentration of 10 mg/ml, and subsequently diluted to 8-10 μg/ml in 10 mM sodium acetate pH 5.0 for immobilization. Serum albumins were immobilized on a Series S CM5 sensor chip using standard ethyl(dimethylaminopropyl) carbodiimide (EDC)/N-hydroxysuccinimide (NHS) chemistry in HBS-EP+ running buffer at 25° C., following general manufacturer guidelines. Flow cell 1 was activated with EDC/NHS and blocked with ethanolamine. […] Kinetic experiments were performed in PBS buffer containing 0.05% tween-20 (running buffer) at either 25° C. or 37° C. […] These samples were injected across flow cells 1-4 for 300 s, with a 420 s dissociation time, at flow rates of 30 μl/min or 60 μl/min to check for mass transfer limitation. All surfaces were regenerated with 2 pulses of 10 mM glycine pH 2.0 at 30 μl/min for 30 s. Raw sensograms were “double-referenced” by subtracting flow cell 1 data from flow cell 2, 3 or 4 data, and then subtracting a separate buffer cycle from each sensogram. The double-referenced sensogram data was fitted to a 1:1 Langmuir model using Biacore T100 Evaluation software version 2.0.2 to determine the association rate constant (ka), the dissociation rate constant (kd), and the equilibrium dissociation constant (KD).

Assay [8] has as its target T3, murine serum albumin. In words: SPR (Biacore T100), immobilized MuSA, analyte series 1000 to 62.5 nM, 37 C. The method, then: as §1
In assay [9] the target is T2, human serum albumin. In words: SPR (Biacore T100), HSA immobilized, 37 C, 60 µl/min. The method, then: as §1
Assay [10] concerns the target T4, cynomolgous monkey serum albumin. As to the kind of experiment: SPR (Biacore T100), CySA immobilized, 37 C, 30 µl/min. The method, then: as §1
In assay [11] the target is T2, human serum albumin. As to the kind of experiment: SPR (Biacore T100), HSA immobilized, 37 C, 30 µl/min. The protocol:
as §1

Assay [12] concerns the target T2, human serum albumin. As to the kind of experiment: Affinity for hSA by SPR (same value as in Table 21). The method, then: (§2) Surface Plasmon Resonance (SPR) is a direct binding technique by which molecular interactions can be observed in real time. For these experiments, SPR binding studies were performed using a ProteOn XPR36 instrument (BioRad Laboratories). The running buffer, phosphate buffered saline 0.05% Tween 20 pH 7.4, was purchased from Teknova (cat #P1192) and all experiments were run at 25° C. Human serum albumin was directly immobilized on a BioRad GLC chip via amine coupling as per manufacturer's guidelines using amine coupling reagents purchased from BioRad Laboratories. Human serum albumin was purchased from Novozymes (Recombumin™). About 5000 resonance units (RU) of human serum albumin were immobilized onto 4 separate lanes of the GLC chip surface. […] The dissociation was monitored for 600 seconds. The surface was regenerated with 100 mM HCl. The resultant data were fitted to a Langumuir 1:1 binding model using the ProteOn Manager Software. The experiment was repeated with a different concentration range. In this second experiment, 5 concentrations ranging from 500 nM to 32 nM were injected over the surfaces, and the data analyzed as above. The KD is the disassociation constant. Smaller numbers indicate tighter binding to serum albumin.

Assay [13] has as its target T2, human serum albumin. In words: SPR (ProteOn XPR36), HSA immobilized on GLC chip, 25 C. The protocol: as §2
For assay [14], the target named is Amylin receptor (chimpanzee; human, UniProt O60894 27-148). In words: cell-based or functional assay.
In assay [15] the target is T5, human NPY Y2 receptor (human, UniProt P49146 1-381).
T5 sequence (looked up): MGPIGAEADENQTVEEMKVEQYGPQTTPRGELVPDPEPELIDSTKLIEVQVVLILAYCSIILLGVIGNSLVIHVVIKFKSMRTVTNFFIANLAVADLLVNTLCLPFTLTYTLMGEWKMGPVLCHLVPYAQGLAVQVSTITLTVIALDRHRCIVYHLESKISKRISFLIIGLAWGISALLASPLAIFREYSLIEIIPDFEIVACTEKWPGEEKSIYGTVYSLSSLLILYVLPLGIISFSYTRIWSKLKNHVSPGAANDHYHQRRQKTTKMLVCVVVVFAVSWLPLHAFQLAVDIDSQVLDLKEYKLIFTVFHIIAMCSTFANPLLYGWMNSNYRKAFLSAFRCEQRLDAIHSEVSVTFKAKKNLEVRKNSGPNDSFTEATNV
As to the kind of experiment: cell-based or functional assay.

T1 sequence (Q28522 17-600 limits assumed): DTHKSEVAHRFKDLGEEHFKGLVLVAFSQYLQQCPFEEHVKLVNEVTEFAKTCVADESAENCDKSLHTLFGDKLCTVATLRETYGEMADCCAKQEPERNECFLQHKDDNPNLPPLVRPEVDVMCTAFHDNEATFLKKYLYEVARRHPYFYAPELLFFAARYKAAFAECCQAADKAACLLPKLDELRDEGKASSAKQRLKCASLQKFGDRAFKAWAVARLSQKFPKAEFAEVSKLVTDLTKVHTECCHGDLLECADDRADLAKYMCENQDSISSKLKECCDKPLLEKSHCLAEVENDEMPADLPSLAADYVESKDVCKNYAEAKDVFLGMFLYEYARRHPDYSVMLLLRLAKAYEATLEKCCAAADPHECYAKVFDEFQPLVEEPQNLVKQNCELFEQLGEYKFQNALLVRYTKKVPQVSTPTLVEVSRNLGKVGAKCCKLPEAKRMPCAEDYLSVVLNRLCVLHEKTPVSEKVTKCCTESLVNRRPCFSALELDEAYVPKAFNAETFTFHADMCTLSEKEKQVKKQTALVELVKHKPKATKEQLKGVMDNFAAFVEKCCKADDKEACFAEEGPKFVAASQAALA
T4 sequence (A2V9Z4 25-608 limits assumed): as the sequence (Q28522 17-600 limits assumed) above
Chain of Amylin receptor (O60894 27-148): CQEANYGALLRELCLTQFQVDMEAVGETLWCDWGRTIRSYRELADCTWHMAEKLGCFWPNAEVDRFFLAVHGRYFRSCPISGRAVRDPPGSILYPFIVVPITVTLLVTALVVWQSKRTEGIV
T3 sequence (P07724 25-608 limits assumed): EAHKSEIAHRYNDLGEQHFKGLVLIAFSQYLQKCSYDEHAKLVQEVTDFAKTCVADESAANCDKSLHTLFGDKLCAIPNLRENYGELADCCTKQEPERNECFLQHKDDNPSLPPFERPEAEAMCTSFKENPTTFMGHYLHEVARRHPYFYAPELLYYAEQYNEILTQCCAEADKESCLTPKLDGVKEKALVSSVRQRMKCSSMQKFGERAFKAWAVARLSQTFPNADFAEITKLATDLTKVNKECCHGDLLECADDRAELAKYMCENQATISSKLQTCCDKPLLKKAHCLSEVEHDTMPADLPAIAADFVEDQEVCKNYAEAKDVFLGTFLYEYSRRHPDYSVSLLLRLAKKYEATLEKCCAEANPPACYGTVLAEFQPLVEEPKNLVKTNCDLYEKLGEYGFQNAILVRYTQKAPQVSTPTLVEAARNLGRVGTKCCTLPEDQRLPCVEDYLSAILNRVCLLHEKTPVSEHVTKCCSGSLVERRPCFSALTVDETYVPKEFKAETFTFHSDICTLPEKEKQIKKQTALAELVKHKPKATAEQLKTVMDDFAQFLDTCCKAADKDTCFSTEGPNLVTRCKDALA
Chain of β-klotho of differentiated 3T3-L1 adipocytes (mouse) (Q99N32 whole entry): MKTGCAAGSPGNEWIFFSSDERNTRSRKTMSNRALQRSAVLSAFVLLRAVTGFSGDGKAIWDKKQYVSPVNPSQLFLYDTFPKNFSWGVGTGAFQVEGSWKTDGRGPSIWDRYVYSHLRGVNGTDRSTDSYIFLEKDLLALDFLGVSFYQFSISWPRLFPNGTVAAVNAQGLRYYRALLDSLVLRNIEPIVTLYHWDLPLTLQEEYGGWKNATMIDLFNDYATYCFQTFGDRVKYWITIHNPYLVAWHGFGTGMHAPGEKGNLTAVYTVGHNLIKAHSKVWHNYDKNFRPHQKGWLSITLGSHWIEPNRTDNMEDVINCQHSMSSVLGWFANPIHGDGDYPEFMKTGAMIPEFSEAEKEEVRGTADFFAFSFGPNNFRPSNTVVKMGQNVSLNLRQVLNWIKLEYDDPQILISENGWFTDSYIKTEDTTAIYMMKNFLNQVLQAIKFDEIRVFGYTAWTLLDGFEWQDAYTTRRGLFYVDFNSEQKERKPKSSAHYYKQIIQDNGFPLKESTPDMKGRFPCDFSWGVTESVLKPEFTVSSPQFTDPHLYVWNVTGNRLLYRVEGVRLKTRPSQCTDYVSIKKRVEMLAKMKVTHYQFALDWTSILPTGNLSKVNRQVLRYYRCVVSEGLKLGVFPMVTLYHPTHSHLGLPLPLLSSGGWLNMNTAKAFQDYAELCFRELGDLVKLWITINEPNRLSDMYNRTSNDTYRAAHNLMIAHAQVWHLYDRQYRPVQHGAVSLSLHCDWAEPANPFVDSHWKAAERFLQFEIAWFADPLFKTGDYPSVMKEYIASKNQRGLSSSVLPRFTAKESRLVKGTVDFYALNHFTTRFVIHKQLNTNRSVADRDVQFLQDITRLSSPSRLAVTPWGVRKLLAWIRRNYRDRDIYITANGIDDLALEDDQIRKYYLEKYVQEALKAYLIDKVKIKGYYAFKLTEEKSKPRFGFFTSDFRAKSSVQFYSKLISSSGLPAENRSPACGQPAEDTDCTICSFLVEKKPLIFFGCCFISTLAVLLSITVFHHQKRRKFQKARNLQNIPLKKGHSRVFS
Chain of human NPY Y4 receptor (P50391 whole entry): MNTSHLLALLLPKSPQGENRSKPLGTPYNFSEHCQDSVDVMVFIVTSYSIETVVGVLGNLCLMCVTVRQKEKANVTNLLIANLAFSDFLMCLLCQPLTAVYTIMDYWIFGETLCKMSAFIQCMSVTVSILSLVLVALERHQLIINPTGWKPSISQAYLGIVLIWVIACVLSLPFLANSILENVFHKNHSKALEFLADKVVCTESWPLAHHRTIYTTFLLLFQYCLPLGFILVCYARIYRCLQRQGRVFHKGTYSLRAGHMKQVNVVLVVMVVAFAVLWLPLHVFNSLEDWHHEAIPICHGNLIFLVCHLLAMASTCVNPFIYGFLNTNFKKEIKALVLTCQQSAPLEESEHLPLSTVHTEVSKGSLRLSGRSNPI

In assay [1], “His-tagged FGF21 (from UniProt Q9NSA1 29-209) (ligand)” came in with an EC50 (nM), pERK 1/2 assay in HEK β-Klotho expressing stable cells of 7 nM and an Efficacy (%), pERK 1/2 assay in HEK β-Klotho expressing stable cells of 100%. In [2], the EC50 (nM), pERK assay in 3T3-L1 adipocytes is 4 nM and the Fold Activation, pERK assay in 3T3-L1 adipocytes stood at 2.1 fold.

B1: SABA2.1 (designed binder)
chain: MGVSDVPRDLEVVAATPTSLLISWPKYDKTGHYYRITYGETGGNSPVQEFTVPTRQTTATISGLKPGVDYTITVYAVSKDDYYPHEHRPISINYRTEIDKPSQHHHHHH
notes: His6-tagged Adnectin core 2
In assay [3], B1 returned a Kd of 63.6 nM and a koff of 0.000442 s⁻¹. Also, in [4], the Kd is 33.8 nM and the koff was found to be 0.000171 s⁻¹. Further, the binding result in [5] is reported as “no binding”.

B2: SABA4.1 (designed binder)
chain: MGVSDVPRDLEMVAATPTSLLISWEDDSYYSRYYRITYGETGGNSPVQEFTVPSDLYTATISGLKPGVDYTITVYAVTYDVTDLIMHEPISINYRTEIDKPSQHHHHHH
notes: His6-tagged Adnectin core 4; has a scaffold mutation; the scaffold-perfect version is SABA5
Consider B2, for which the Kd in [3] was over 1000 nM; in [4], 412 nM. Also, the results for the koff in assay [3] and in assay [4] were 0.00383 s⁻¹ and 0.000782 s⁻¹, respectively. Further, in assay [5], the binding result was “no binding”.

B3: SABA3.1 (designed binder)
chain: MGVSDVPRDLEVVAATPTSLLISWSNDGPGLSYYRITYGETGGNSPVQEFTVPSSQTTATISGLKPGVDYTITVYAVSYYTKKAYSAGPISINYRTEIDKPSQHHHHHH
notes: His6-tagged Adnectin core 3
In the case of B3, in assay [3], the Kd was 431 nM and the koff was found to be 0.0337 s⁻¹. In assay [4], this molecule gave a Kd of 863 nM and a koff of 0.0682 s⁻¹. In addition, the binding result in assay [5] is recorded as “no binding”.

Consider APLEPMYPGDYATPEQMAQYETQLRRYINTLTRPRY-NH2 [PP Control Peptide], for which the “Potency (EC50, nM), GTPγS binding functional assay” value in [6] was 1.7 nM.

B4: SABA1-FGF21v3 (designed binder)
chain: MGVSDVPRDLEVVAATPTSLLISWHSYYEQNSYYRITYGETGGNSPVQEFTVPYSQTTATISGLKPGVDYTITVYAVYGSKYYYPISINYRTEIDKPSQHHHHHHGSGSGSGSGSGSGSPIPDSSPLLQFGGQVRQRYLYTDDAQQTEAHLEIREDGTVGGAADQSPESLLQLKALKPGVIQILGVKTSRFLCQRPDGALYGSLHFDPEACSFRELLLEDGYNVYQSEAHGLPLHLPGNKSPHRDPAPRGPARFLPLPGLPPALPEPPGILAPQPPDVGSSDPLSMVGPSQGRSPSYAS
notes: Fusion of SABA1 and FGF21; also called SABA1-FGF21 variant 3
For B4, the Kd came to 3100 nM in assay [7], 180 nM in assay [9], 2200 nM in assay [10] and 170 nM in assay [11]. The koff is 0.0136 s⁻¹ in [7], 0.00107 s⁻¹ in assay [9], 0.0117 s⁻¹ in [10] and 0.00103 s⁻¹ in assay [11]. Also, the kon in assay [7] was 4380 M⁻¹ s⁻¹; in assay [9], 5870 M⁻¹ s⁻¹; in assay [10], 5310 M⁻¹ s⁻¹; in assay [11], 6160 M⁻¹ s⁻¹. For the same molecule, the binding result in assay [8] is given as “no binding (tested: 1000 nM)”.

B5: SABA1.1 (designed binder)
chain: MGVSDVPRDLEVVAATPTSLLISWHSYYEQNSYYRITYGETGGNSPVQEFTVPYSQTTATISGLKPGVDYTITVYAVYGSKYYYPISINYRTEIDKPSQHHHHHH
For the molecule B5, the Kd stood at 778 nM in assay [3] and 47.2 nM in assay [4]. Besides, the koff in [3] worked out at 0.00545 s⁻¹; in assay [4] it was 0.000457 s⁻¹. For the same molecule, the binding result in assay [5] is on record as “no binding”.

B6: SABA1-AMYv25 (designed binder)
chain: MGVSDVPRDLEVVAATPTSLLISWHSYYEQNSYYRITYGETGGNSPVQEFTVPYSQTTATISGLKPGVDYTITVYAVYGSKYYYPISINYRTEIEDEDEDEDEDGC
modifications: Maleimide-PEG20 spacer (X1) between the Cys after (ED)5G and AMYv5 (rat amylin); C-terminal amidation; disulfide bridge between the two Cys residues of amylin
notes: also called SABA-Amylin-CONH2 conjugate; SABA1.7-(ED)5G-Cys-PEG20-Amylin-CONH2
Take B6: the Kd in assay [12] was 25.8 nM. In assay [13], this molecule registered a Kd of 25.8 nM, an off-rate (koff) of 0.000241 s⁻¹ and a kon of 9340 M⁻¹ s⁻¹. In [14], the “Cell based Potency (EC50, nM), cellular cAMP assay” value is 12.2 nM and the “Efficacy (% of native peptide ligand maximal activity), cellular cAMP assay” value stood at 119%.

B7: SABA1-PYYv7 (designed binder)
chain: MGVSDVPRDLEVVAATPTSLLISWHSYYEQNSYYRITYGETGGNSPVQEFTVPYSQTTATISGLKPGVDYTITVYAVYGSKYYYPISINYRTEIEDEDEDEDEDGC
modifications: Maleimide-PEG20 spacer (X1) between the Cys after (ED)5G and PYYv17 (mouse PYY3-36); C-terminal amidation
notes: also called SABA-PYY3-36-CONH2 conjugate; SABA1.7-(ED)5G-Cys-PEG20-PYY-CONH2
In turn, B7 had a Kd in [12] of 22.5 nM. In assay [13], this molecule yielded a Kd of 22.5 nM, a koff of 0.000208 s⁻¹ and a kon of 9290 M⁻¹ s⁻¹. Moreover, in assay [15], the “Potency (EC50, nM), GTPγS binding functional assay” value turned out to be 52 nM.

B8: SABA1-PPv7 (designed binder)
chain: MGVSDVPRDLEVVAATPTSLLISWHSYYEQNSYYRITYGETGGNSPVQEFTVPYSQTTATISGLKPGVDYTITVYAVYGSKYYYPISINYRTEIEDEDEDEDEDGC
modifications: Maleimide-PEG20 spacer (X1) between the Cys after (ED)5G and PPv9 (mouse PP); C-terminal amidation
notes: also called SABA-PP-CONH2 conjugate; SABA1-APPv7
For B8, the Kd in assay [12] is 18.8 nM. Also, in assay [13], binding was put at a Kd of 18.8 nM, the koff is 0.000142 s⁻¹ and the kon came to 7880 M⁻¹ s⁻¹. The “Potency (EC50), GTPγS binding functional assay” value in assay [6] is over 1000 nM.

KCNTATCATQRLANFLVRSSNNLGPVLPPTNVGSNTY-NH2 (disulfide 2-7) [Amylin Control Peptide]: in assay [14], the “Efficacy (% of native peptide ligand maximal activity), cellular cAMP assay” value is 100%.
